By Kd is commonly meant the concentration at which binding is half-saturated. Read a low Kd as a tighter complex.

Test [1] addresses T1, human/murine IL-18 chimera in which C-terminal human IL-18 residues 120-193 were replaced by the … (human; mouse).
T1 construct: Mature form after caspase-1 cleavage; also called human (37-119)/murine IL-18 chimera; not shown: C-terminal V5 and His tags and any linker to them
T1 chain: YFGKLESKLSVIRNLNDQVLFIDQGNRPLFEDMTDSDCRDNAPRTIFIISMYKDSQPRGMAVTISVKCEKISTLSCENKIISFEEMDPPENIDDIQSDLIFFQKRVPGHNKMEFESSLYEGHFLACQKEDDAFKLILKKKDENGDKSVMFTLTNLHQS
As to the kind of experiment: sandwich ELISA, capture by test antibody, detection by anti-tag antibody. (In general: ELISA stands for enzyme-linked immunosorbent assay.)

The target in test [2] is T2, murine IL-18, mature, with C-terminal V5 and His tags (mouse, UniProt P70380 36-192).
T2 construct: also called IL-18 mouse
T2 sequence: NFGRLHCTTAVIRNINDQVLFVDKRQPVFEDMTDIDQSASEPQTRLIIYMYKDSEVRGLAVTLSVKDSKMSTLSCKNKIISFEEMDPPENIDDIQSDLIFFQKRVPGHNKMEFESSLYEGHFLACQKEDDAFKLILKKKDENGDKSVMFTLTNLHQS
The description is as above.

The target of test [3] is T3, human/murine IL-18 chimera in which C-terminal human IL-18 residues 92-193 were replaced by the corresponding … (human; mouse).
T3 construct: Mature form after caspase-1 cleavage; also called human (37-91)/murine IL-18 chimera; not shown: C-terminal V5 and His tags and any linker to them
T3 chain: T1 chain with Q56E, P57V, M60L, I64L, C68D, E69S, I71M, E77K
The test is described as above.

Test [4] deals with T4, human (37-176)/murine (174-192) IL-18 chimera (human; mouse, UniProt Q14116 37-188).
T4 chain: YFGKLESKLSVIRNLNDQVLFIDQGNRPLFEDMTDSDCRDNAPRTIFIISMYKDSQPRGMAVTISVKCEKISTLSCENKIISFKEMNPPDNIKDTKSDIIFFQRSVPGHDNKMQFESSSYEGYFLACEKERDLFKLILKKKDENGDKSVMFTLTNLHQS
The test is described as above.

The target of test [5] is recombinant human IL-18 (KG-1 bioassay) (human, UniProt Q14116 37-193). As to the kind of experiment: cell-based or functional assay.
For test [6], the target named is natural human IL-18 (whole blood assay) (human, UniProt Q14116 37-193). As to the kind of experiment: cell-based or functional assay.
Test [7] deals with T5, mutant human IL-18 (mature form of pro-IL-18-5C→A, cysteines mutated to alanine) (human, UniProt Q14116 37-193).
T5 construct: also called Mutant IL-18; pro-IL-18-5C→A after caspase-1 cleavage
As to the kind of experiment: method not stated (Biacore is named later in the paragraph). For orientation: SPR reads the build-up and loss of mass on a sensor chip optically.

Test [8] has as its target T4, human (37-176)/murine (174-192) IL-18 …. As to the kind of experiment: sandwich ELISA: tagged IL-18 chimera captured by the test antibody, detected with an anti-tag antibody.

Where a chain is given by its changes, count along the chain named.

B1: ABT-325, recombinant human immunoglobulin G1 (IgG1) monoclonal antibody specific for human IL-18 (antibody, V domains shown)
VH: EVQLVQSGTEVKKPGESLKISCKGSGYTVTSYWIGWVRQMPGKGLEWMGFIYPGDSETRYSPTFQGQVTISADKSFNTAFLQWSSLKASDTAMYYCARVGSGWYPYTFDIWGQGTMVTVSS
VL: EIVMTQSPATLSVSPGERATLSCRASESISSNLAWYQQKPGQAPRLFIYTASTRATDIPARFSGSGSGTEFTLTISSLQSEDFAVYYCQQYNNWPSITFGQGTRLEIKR
notes: IgG1 kappa
B1: the binding result is on record as “no binding” in test [1], “no binding” in test [2], “no binding” in test [3] and “binds” in test [4]. Also, the “IC50, human myelomonocytic cell line KG-1 bioassay; IL-18Rα/β-driven IFN-γ production” value in test [5] was found to be 0.2 nM. In test [6], the “IC50, whole blood assay; LPS+IL-12-driven IFN-γ production” value was about 3 nM. This molecule also came in with a Kd in test [7] of about 0.2 nM.

B2: 125-2H, neutralizing murine immunoglobulin G1 (IgG1) monoclonal antibody specific for human IL-18 (antibody, V domains shown)
VH: EIQLQQSGPELVKPGASVKVSCKASGYSFTDYFIYWVKQSHGKSLEWIGDIDPYNGDTSYNQKFRDKATLTVDQSSTTAFMHLNSLTSEDSAVYFCARGLRFWGQGTLVTVSA
VL: DIQMTQSPSSLSASLGERVSLTCRASQDIGSKLYWLQQEPDGTFKRLIYATSSLDSGVPKRFSGSRSGSDYSLTISSLESEDFVDYYCLQYASSPYTFGGGTKLAIKR
notes: Murine IgG1
For B2, the binding result in test [8] was “no binding”. For the same molecule, in test [5], the “IC50, human myelomonocytic cell line KG-1 bioassay; IL-18Rα/β-driven IFN-γ production” value is 0.2 nM. In test [6], the “IC50, whole blood assay; LPS+IL-12-driven IFN-γ production” value is about 3 nM. Also, in test [7], the Kd is about 0.2 nM.
